The values below come from article PMC4939079 (Nature structural & molecular biology, 2016).

The data set deals with the molecule itself. The data set is described as follows: affinity purification with mass spectrometry.

B1: Bap1-GFP (natural protein)
chain: MNKGWLELESDPGLFTLLVEDFGVKGVQVEEIYDLQSKCQGPVYGFIFLFKWIEERRSRRKVSTLVDDTSVIDDDIVNNMFFAHQLIPNSCATHALLSVLLNCSNVDLGPTLSRMKDFTKGFSPESKGYAIGNAPELAKAHNSHARPEPRHLPEKQNGLSAVRTMEAFHFVSYVPITGRLFELDGLKVYPIDHGPWGEDEEWTDKARRVIMERIGLATAGEPYHDIRFNLMAVVPDRRIKYETRLHVLKVNRQTVLEALQQLIRVTQPELIQTHKSQESQLPEESKPASSKSPLGLEAGRTPVASECTQTDGAEEVAGSCPQTTTHSPPSKCKLVVKPPGSSLNGVPPNPAPIVQRLPAFLDNHNYAKSPMQEEEDLAAGVGRSRVPVRAPQQYSEDEDDYEDEDEDVQNTNPAIRYKRKGTGKPGSLSNSSDGQLSVLQPNTINVLTEKLQESQKDLSVPLSIKTSSGAGSPAVAVPTHSQPSPTPSNESTDTASEIGSAFNSPLRSPIRSANPTRPSSPVTSHISKVLFGEDDSLLRVDCIRYNRAVRDLGPVISTGLLHLAEDGVLSPLALTEGGKGSSPSTRSSQGSQGSSGLEEKEVVEVTESRDKPGLNRSSEPLSGEKYSPKELLALLKCVEAEIANYEACLKEEVEKRKKFKIDDQRRTHNYDEFICTFISMLAQEGMLANLVEQNISVRRRQGVSIGRLHKQRKPDRRKRSRPYKAKRQ
For the protein B1, the “stoichiometry N” value was ~2.

The term stoichiometry N denotes a count of units in the complex or per binding partner.
